This is an account of results in article PMC4434712 (Proceedings of the National Academy of Sciences of the …, 2015).

Read-outs that look alike come from different tables or passages of the source.

Common to all, as to assay: crystal structure
Assay [1] has as its target T1, VZV glycoprotein gH (ectodomain, as in the gHgL crystal structures) (varicella-zoster virus, UniProt P09260).
In assay [2] the target is T2, VZV glycoprotein gL (varicella-zoster virus, UniProt P09308).
In assay [3] the target is T2, VZV glycoprotein gL. This is another data set of the same source.
Assay [4] deals with T1, VZV glycoprotein gH (ectodomain, as in …). The source holds these as a separate data set.

T2 sequence (P09308 22-159): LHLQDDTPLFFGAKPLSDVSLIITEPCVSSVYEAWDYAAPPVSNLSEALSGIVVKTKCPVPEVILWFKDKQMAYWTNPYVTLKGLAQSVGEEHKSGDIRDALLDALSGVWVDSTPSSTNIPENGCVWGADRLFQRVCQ
T1 sequence (P09260 18-795): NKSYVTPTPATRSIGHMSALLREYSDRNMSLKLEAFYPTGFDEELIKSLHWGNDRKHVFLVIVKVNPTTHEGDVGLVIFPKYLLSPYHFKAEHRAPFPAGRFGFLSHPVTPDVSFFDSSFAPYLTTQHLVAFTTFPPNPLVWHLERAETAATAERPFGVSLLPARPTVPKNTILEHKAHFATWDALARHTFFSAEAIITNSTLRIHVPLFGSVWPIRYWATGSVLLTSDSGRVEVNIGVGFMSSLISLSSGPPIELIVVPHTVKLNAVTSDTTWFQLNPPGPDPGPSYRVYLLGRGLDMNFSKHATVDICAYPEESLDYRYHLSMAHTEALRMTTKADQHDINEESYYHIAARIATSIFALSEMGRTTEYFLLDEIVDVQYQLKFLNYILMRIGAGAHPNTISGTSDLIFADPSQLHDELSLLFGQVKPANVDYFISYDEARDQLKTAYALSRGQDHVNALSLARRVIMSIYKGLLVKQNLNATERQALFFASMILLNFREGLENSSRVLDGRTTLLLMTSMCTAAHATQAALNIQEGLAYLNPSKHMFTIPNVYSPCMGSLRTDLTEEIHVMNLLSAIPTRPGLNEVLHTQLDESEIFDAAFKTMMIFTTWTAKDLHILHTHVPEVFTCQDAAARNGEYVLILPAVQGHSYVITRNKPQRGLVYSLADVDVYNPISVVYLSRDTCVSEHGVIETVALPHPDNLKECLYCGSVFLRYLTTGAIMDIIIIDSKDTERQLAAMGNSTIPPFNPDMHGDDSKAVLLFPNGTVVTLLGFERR

B1: Fab-RC, Fab fragment of the human monoclonal antibody IgG-RC (Fab, V domains shown)
VH: QVQLVQSGAEMKKPGASVKVSCKASGYTFIGYHLHWVRQAPGQGLEWMGWINPNSGETNYAQKFQDWVTMTRDTSINTAYMELRLRSDDTAVYYCARGGMTMVRGVMMDWGQGTLVTVSS
VL: DIQMTQSPSFLSASVGDRVTITCRASQGLDNFLAWYQQKPGKAPKLLIYAASTLQRGVPSRFGGSGSGTEFTLTISSLQPEDFATYYCQQLNSYSLTFGPGTKVEIK
For B1, the binding result in assay [1] and in assay [2] was “binds” each time.

B2: Fab-94, Fab fragment of the human monoclonal antibody IgG-94 (Fab, V domains shown)
VH: EVQLVESGGGVVQPGRSLRLSCGASGFTFNTYAMHWVRQAPGKGVEWVAVVSDGGGNRYYAASVKGRFTISRDNSKNTLFLQLNTLRPEDTAVYYCARSRGNHYYYGMDVWGRGTTVTVSS
VL: DIQMTQSPSSVSASVGDRVTITCRASQGISSWLAWYQQKPGKAPKLLIYAASSLQSGVPSRFSGSGSGTDFTLTISSLQPEDFATYYCQQANNFPLTFGGGTKVEIK
In the case of B2, the binding result in assay [3] and in assay [4] was “binds” each time.
